Results reported in patent US20090047211A1.

Key:
[1] = molecular target: mesothelin-Fc fusion protein (extracellular domain of human mesothelin fused with rabbit IgG Fc) (rabbit; human) (UniProt Q13421); assay: Biacore, affinity to mesothelin-Fc in solution
[2] = molecular target: mesothelin (native, on mesothelin-expressing human cells and in mesothelioma tissue) (human) (UniProt Q13421); assay: flow cytometry on H226 cells, MAb 1 µg/ml, PE-labeled anti-mouse IgG; conditions: scale: log geometric mean of fluorescence intensity
[3] = molecular target: mesothelin-Fc fusion protein (extracellular domain of human mesothelin fused with rabbit IgG Fc) (rabbit; human) (UniProt Q13421); assay: ELISA on plates coated with mesothelin-Fc, HRP-labeled anti-mouse IgG
[4] = molecular target: mesothelin-Fc fusion protein (extracellular domain of human mesothelin fused with rabbit IgG Fc) (rabbit; human) (UniProt Q13421); assay: Western blot on SDS-denatured mesothelin-Fc, MAb 1 µg/ml
[5] = molecular target: mesothelin-Fc fusion protein (extracellular domain of human mesothelin fused with rabbit IgG Fc) (rabbit; human) (UniProt Q13421); assay: ELISA on mesothelin-Fc (summary of Table 1)
[6] = molecular target: mesothelin-Fc fusion protein (extracellular domain of human mesothelin fused with rabbit IgG Fc) (rabbit; human) (UniProt Q13421); assay: Western blot on mesothelin-Fc (summary of Table 1)
[7] = molecular target: mesothelin-Fc fusion protein (extracellular domain of human mesothelin fused with rabbit IgG Fc) (rabbit; human) (UniProt Q13421); assay: Western blot on SDS-denatured mesothelin-Fc

| Molecule | Kd [1] | FACS reactivity to H226 cells (log geometric mean of fluorescence intensity) [2] | amount of MAb that showed OD450 = 0.5 in ELISA [3] | minimum amount of mesothelin-Fc detected in Western blot [4] | fold reactivity in ELISA against the K1 and 5B2 antibodies [5] | fold sensitivity in Western blot against the K1 and 5B2 antibodies [6] | fold sensitivity in Western blot against MAbs K1 and 5B2 [7] |
| --- | --- | --- | --- | --- | --- | --- | --- |
| MAb K1 (antibody) | 12 nM | 2.5 | 1000 ng/mL | 25 ng | – | – | – |
| MAb MB (antibody, IgG2a, V domains shown) VH: EVKLVESGGGLVQPGGSLSLSCAASGFTFTDYYMSWVRQPPGRALEWLGFIRGKANGYTTEYSASVKGRFTISRDYSQSILYLHMNALRAEDSATYSCARYYYSNYVWYFDVWGTGTTVTVSS VL: DIVMTQSQKFMSTSVGDRVSVTCKASQNVGTNVAWYQQKPGLSPKVLIHSASYRFSGVPDRFTGSGSGTDFTLSISNVQSEDLAKYFCQQYNSYPLTFGAGTKLELKR | 0.6 nM | 3.3 | 1.9 ng/mL | 2 ng | 500 fold | 12 fold | 10 fold |
| MAb MN (antibody, IgG2a, V domains shown) VH: QVQLQQPGAELVKPGASMKLSCKASGYTFTSYWMHWVKQRPGQGLEWIGMIHPNSDNTIYYEKFKSKATLTVDKSSSTAYMQLSSLTSEDSAVYYCAIIITPVVPKFDYWGQGTTLTVSS VL: DIVMTQSHQFMSTSVGDRVSVTCKASHDVGTSVAWYQQKPGQSPKLLIYWASTRHTGVPDRFTGSGSGTDFTLTISNVQSEDLADYFCQQYSSYPLTFGAGTKLELKR | 1 nM | 3.5 | 1.1 ng/mL | 2 ng | 500 fold | 12 fold | 10 fold |
